# Reference: publication PMC8225110, “The Divergent Key Residues of Two Agrobacterium fabrum (tumefaciens) CheY Paralogs Play a Key Role in Distinguishing Their Functions” (Microorganisms, 2021)
# T1: GST-FliM fusion protein (Agrobacterium fabrum C58, UniProt Q44457 1-321)
# T1 construct: Flagellar motor switch protein FliM (atu0561) of Agrobacterium fabrum C58; Cloned in pGEX-4T-1; not shown: GST, N-terminal, kept
# T1 sequence (looked up): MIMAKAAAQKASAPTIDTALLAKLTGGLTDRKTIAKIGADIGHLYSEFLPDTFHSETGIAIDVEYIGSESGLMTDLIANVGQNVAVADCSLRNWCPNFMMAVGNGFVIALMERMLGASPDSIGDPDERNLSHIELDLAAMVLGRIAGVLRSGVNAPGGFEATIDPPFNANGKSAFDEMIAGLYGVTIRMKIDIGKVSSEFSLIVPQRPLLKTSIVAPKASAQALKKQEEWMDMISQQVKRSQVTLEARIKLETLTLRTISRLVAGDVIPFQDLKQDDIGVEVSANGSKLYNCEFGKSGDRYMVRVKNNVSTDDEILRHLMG
# B1: CheY2-6×his fusion protein, phosphorylated with acetyl phosphate (natural protein, Agrobacterium fabrum C58, UniProt Q7D1A5 1-129, looked up)
# chain: MSLAEKIKVLIVDDQVTSRLLLSDALTQLGFKQITSAGDGEQGLKIMEQQPHHLVISDFNMPKMDGLGFLHAVRANPTTKKAAFIILTAQGDRALVQKAAQLGANNVLAKPFTIDKMRAAIEAVFGSLK
# modifications: phosphorylated by acetyl phosphate (residue not given)
# notes: Chemotaxis response regulator CheY2 (atu0520) of Agrobacterium fabrum C58; Same construct as m11; the extent of phosphorylation was not measured; also called CheY2-P; source: E. coli BL21 (DE3), crude extract, with acetyl phosphate (phosphorylating conditions); not shown: His6, C-terminal, kept
# Biological target: T1, GST-FliM fusion protein
# Assay: pull-down; GST-FliM on glutathione-Sepharose 4B beads, crude extract of CheY-6×his in PBS with MgCl2 and acetyl phosphate (phosphorylating conditions), 4 °C, 1 h; Western blot with anti-6×his antibody
# Settings: one partner purified
binder,measurement,value
B1,"fold band intensity pulled down, against CheY1-6×his",~5 fold
